Assays:
[1] = target: T1, CD73 on the surface of A375 cells (UniProt P21589 27-549); experiment: flow cytometry cell binding
T1 chain: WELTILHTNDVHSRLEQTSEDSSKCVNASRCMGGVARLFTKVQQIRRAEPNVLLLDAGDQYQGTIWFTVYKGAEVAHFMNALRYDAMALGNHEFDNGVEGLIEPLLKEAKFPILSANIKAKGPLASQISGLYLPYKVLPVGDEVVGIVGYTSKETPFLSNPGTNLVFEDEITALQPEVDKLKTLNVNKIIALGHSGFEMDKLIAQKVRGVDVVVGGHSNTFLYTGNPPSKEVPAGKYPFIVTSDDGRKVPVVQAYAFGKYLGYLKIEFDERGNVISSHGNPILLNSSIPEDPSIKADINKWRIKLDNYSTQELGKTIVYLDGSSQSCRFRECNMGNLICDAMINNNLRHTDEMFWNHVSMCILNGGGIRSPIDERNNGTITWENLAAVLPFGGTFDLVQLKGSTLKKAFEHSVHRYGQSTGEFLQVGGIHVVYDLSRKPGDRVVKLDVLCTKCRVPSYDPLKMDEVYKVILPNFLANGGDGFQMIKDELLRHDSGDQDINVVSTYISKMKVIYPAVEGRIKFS

[2] = target: T2, human CD73 protein (soluble) (human, UniProt P21589 27-549); experiment: ELISA
T2 chain: T1 chain

[3] = target: human PD-L1 protein (soluble) (human, UniProt Q9NZQ7 19-238); experiment: ELISA
Chain of human PD-L1 protein (soluble) (Q9NZQ7 19-238): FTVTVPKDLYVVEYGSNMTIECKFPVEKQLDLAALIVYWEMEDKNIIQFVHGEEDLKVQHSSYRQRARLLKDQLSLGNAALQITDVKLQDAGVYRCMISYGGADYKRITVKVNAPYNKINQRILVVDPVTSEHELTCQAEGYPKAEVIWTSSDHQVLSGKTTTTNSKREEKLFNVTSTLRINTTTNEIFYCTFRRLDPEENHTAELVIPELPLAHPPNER

[4] = target: human PD-L1 on PD-L1 positive Raji cells (human, UniProt Q9NZQ7 19-290); experiment: flow cytometry cell binding
Chain of human PD-L1 on PD-L1 positive Raji cells (Q9NZQ7 19-290): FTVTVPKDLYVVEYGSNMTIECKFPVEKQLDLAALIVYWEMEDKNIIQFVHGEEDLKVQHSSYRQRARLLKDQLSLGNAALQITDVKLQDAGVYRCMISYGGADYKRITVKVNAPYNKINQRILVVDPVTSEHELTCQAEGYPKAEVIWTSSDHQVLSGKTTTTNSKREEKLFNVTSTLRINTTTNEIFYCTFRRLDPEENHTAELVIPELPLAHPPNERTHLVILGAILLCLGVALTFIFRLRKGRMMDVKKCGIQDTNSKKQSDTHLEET

B1: hu309 (monospecific anti-CD73 antibody with the 309 VH and 309 VL) (antibody, V domains shown)
VH: EVQLQESGPGLVKPSETLSLTCAVSGYSITSGYYWNWIRQPPGKKLEWMGYINYGGSNGYNPSLKSRITISRDTSKNQFSLKLSSVTAADTAVYYCARDYDAYYEALDDWGQGTTVTVSS
VL: EIVLSQSPATLSLSPGERATLSCRASSRVNYMHWYQQKPGQSPRPWISATSNLASGVPARFSGSGSGTSYTLTISSLEPEDFAVYYCQQWSSNPPTFGGGTKVEIK
[1]
  EC50: 2.06 nM
[2]
  EC50: 0.0575 nM

B2: anti-CD73/PD-L1 bispecific antibody 309-H12 (structure A of FIG. 1) (bispecific antibody)
heavy: not shown
light: EIVLSQSPATLSLSPGERATLSCRASSRVNYMHWYQQKPGQSPRPWISATSNLASGVPARFSGSGSGTSYTLTISSLEPEDFAVYYCQQWSSNPPTFGGGTKVEIKRTVAAPSVFIFPPSDEQLKSGTASVVCLLNNFYPREAKVQWKVDNALQSGNSQESVTEQDSKDSTYSLSSTLTLSKADYEKHKVYACEVTHQGLSSPVTKSFNRGEC
[1]
  EC50: 2.24 nM
[3]
  EC50: 0.179 nM
[4]
  EC50: 0.255 nM
[2]
  EC50: 0.0715 nM

B3: H12(PDL1) (monospecific anti-PD-L1 antibody with the H12 VH and H12 VL) (antibody, V domains shown)
VH: EVQLVESGGGLVQPGGSLRLSCAASGFTFSSYDMSWVRQAPGKSLEWVATISDAGGYIYYRDSVKGRFTISRDNAKNSLYLQMNSLRDEDTAVYICARELPWRYALDYWGQGTTVTVSS
VL: DIQMTQSPSSLSASVGDRVTITCKASQDVTPAVAWYQQKPGKAPKLLIYSTSSRYTGVPSRFSGSGSGTDFTFTISSLQPEDIATYYCQQHYTTPLTFGQGTKLEIK
[3]
  EC50: 0.00948 nM
[4]
  EC50: 0.0237 nM

Reference: US20200347146A1 (published 2020)
